Results published in a protein production outcome set (Wang et al. 2014).

Test: label from the status in PepcDB records
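Note: failed if final PepcDB status was selected cloned or expressed and not failed if soluble or beyond.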

MITKQDTIYEWIQNGQLEDALKALFQNIEEEPNTIENYINAGIVLADINEIEKAERFFQRAITIDDKNGAVYYNLANLYYDQGKYRDAIKLYQLASKYNMDKIDTNYMIGMSFNQLDAPTESLPYFMTAAELDKNQDAEVQFQYGLALCHLEMFNQAINQLKIVLDIDSKHVDALYNLGLATYMDTEDLDLAMSYFDKAISIDPNHLLSQHAKKTFEAIKNEEE
protein production: failed

MMRLANGIVLDKDTTFGELKFSALRREVRIQNEDGSVSDEIKERTYDLKSKGQGRMIQVSIPASVPLKEFDYNARVELINPIADTVATATYQGADVDWYIKADDIVLTKDSSSFKAQPQAKKEPTQDKLEHHHHHH
protein production: not failed

MARSEGNRPRHRAVPQPSRIRKRLSRGVMTLVSVVALLMTGAGYWVAHGALGGITISQALTPEDPRSSGNNMNILLIGLDSRKDQEGNDLPWSVLKQLHAGDSDDGGYNTNTLILVHVGADGKVVAFSIPRDDWVPFTGVPGYNHIKIKEAYGLTKQYVAEQLANQGVSDRKELETRGREAARAATLRAVRSLTGVPIDYFAEINLAGFYDLAQTLGGVDVCLNHAVYDSYSGADFPAGRQRLNAAQALAFVRQRHGLDNGDLDRTHRQQAFLSSVMRELQDSGTFTNLDRLDNLMAVARKDVVLSAGWDEDLFRRMGDLAGGNVEFRTLPVVRYDNIDGQDVNIIDPTAIRAEVAAAFGSAPPTSQTAAAAKPNPSTVVDVVNAGSISGLASQVSGALLKRGYTAGQVRDRESGDPFTTAIEYGAGAETDAQNVADLLGIDAPNHPDPAVAPGHIRVTVDTNFSLPAPDEATAAATSTETSTYPLYGGGTTTDPTPDQGAPIDGGGVPCVN
protein production: failed

MKKFLAIITLCLLFFSFTIGCERASLNRIGKDVYYMQIKGEGTIEKVDGRNLRNYTLPAYDEDGVKKQITFRSTKKENDHKLNKYAFLRLYVDQDDNSKNEISSIEVKSYEEIQKADLPEKVKDKFTIKLEHHHHHH
protein production: not failed

HPLLAGIPFRQLARPLMQDLAYSVRGTVSIGLLDGPSVVYVETARSGDVGPHTPDIGMPIPVVRTAMGRAAASTLPEAEAERLDRQLEAADGAMWASHRDLYRDGLRQCAERQFCTCFGDYLPAIHAVAAPLFRQRDRSFAINCGIPAFRLQPGQLEDEIGPRVRALAESIRALGVDPE
protein production: failed

IDIEAMLGSVFDAMEPELDFTGEARNMDEARGQVRSFRSLEVPRVLHASPRVLVQSLADGKSVRHVDRAHFTDDERVEIGKDLLRFMYHGYFVHRFFHADPHAGNVFAAPGGPATLIDWGMVGRLD
protein production: failed

MSELNLSPDKLTVLLMGGSFGAGNIKETLDELLDTDRDFQILVITGKNESLKEKIEKKLMSRYHDKNVCVLGYTDKMNDILASIDVLVSKPGGLTTTEALLKDVPMIVPYYIPGQEEENLDFLSNCGAALRTTKKYNLSILLKVLIDDPSRLEMLKRNIKSIRKSNSAQNIANLILNIISGLEHHHHHH
protein production: failed

MDKLDANVSSEEGFGSVEKVVLLTFLSTVILMAILGNLLVMVAVCWDRQLRKIKTNYFIVSLAFADLLVSVLVMPFGAIELVQDIWIYGEVFCLVRTSLDVLLTTASIFHLCCISLDRYYAICCQPLVYRNKMTPLRIALMLGGCWVIPTFISFLPIMQGWNNIGIIDLIEKRKFNQNSNSTYCVFMVNKPYAITCSVVAFYIPFLLMVLAYYRIYVTAKEHAHQIQMLQRAGASSESRPQSADQHSTHRMRTETKAAKTLCIIMGCFCLCWAPFFVTNIVDPFIDYTVPGQVWTAFLWLGYINSGLNPFLYAFLNKSFRRAFLIILCCDDERYRRPSILGQTVPCSTTTINGSTHVLSGCSPVSSFLLLFCNRPVPV
protein production: failed

MGNTDKLMNQIFDLKFTSKSLQRQSRKCEKEEKAEKLKVKKAIEKGNMDGARIYAENAIRKRSEQMNYLRLASRLDAVVARLDTQAKMTTITKSMTNIVKSLESSLATGNLQKMSETMDSFEKQFVNMEVQAEFMENAMAGSTSLSTPEGEVNSLMQQVADDYGLEVSVGLPQPAGHAIPTKTEEKVDEDDLSRRLAELKARG
protein production: failed

MSINTKENIDAIFEKLESFLKSKTVIGEPIKIGETTIIPFIDITFGLGTGGGGGKDEKGNDGTGSGAGAGAKISATAVLVIKGEQVELLPIKKAGGLEKLLDMVPELEHHHHHH
protein production: not failed

MSFKNFKCVPKMIFGRGSFVQLDTVLEQERTDANDFVVFLVDDVHQHKPLAARVPNKAHDLVIYVNVDDEPTTVQVDELTAQVKAFNTKLPVSVVGLGGGSTMDLAKAVSLMLTNPGSSSEYQGWDLIKNPAVHHIGIPTVSGTGAEASRTAVLCGPVRKLGLNSDYTVFDQIIMDSELIAGVPTDQWFYTGMDCFIHCVESLQGTYLNEFAKAFAEKSMDLCREVYLDDHPEKDDKLMMASYMGGMSIAYSQVGACHAVSYGLGYVLGYHHGIGNCLAFDVLEEFYPEGVAEFRKMMEIHNITLPKNICKDLPDETIAKMVAVTKSMGPLWDNVYGKGWEEKVTDEMLTKLFRRI
protein production: not failed

MSLKAVIFDLDGVITDTAEYHFLAWKHIAEQIDIPFDRDMNERLKGISREESLESILIFGGAETKYTNAEKQELMHRKNRDYQMLISKLTPEDLLPGIGRLLCQLKNENIKIGLASSSRNAPKILRRLAIIDDFHAIVDPTTLAKGKPDPDIFLTAAAMLDVSPADCAAIEDAEAGISAIKSAGMFAVGVGQGQPMLGADLVVRQTSDLTLELLHEEWEQYRIRESEGHHHHHH
protein production: not failed

MPTKTLRIPTTDGQADAFAAFPDHSERYPGVLMYADGFGIRPVLREMALELAGHGYYVLVPNSFYRHGPAPLVELPEYIGEGIRPAVFAQLMPLIEAHTAERVLSDADAYLRFLTTQPEVGAGPVAVTGYCIGGLYAMRTAAAHPDQVAAVAAFHGPVGVDGANLFSKLTAQVHLGHAEGDMTPEALGELNQALDAAGVGYTSEIYPGTIHGFTMSDTDAYSAFGLKRHWDRLLPLLDRTL
protein production: failed

MTAPRYPRDMIGYGATPPNANWPGNARIAVQIVLNYEEGGENNILHGDAASEAFLSEIVGAAPWPGQRHWNMETIYEYGARAGFWRLHRLMRDLPVTVYGVATALARSPDQVAAMKSAGWEIASHGLKWVEHKDMPEEEERAQIAEAIRLHTEVTGSRPRGWYTGRCSMNTVRLASEAGIDYIADTYDDDLPYWKRIDGRDQLIVPYTLDCNDMRFATPQGFNSGDQFFAYLKDSFDALYAEGGEGAPKMLSIGLHCRLIGRPGRVMALKRFLDYARGHEDVWFATRLQIAEHWVREHPPVARTRPSEMPKADFVAAYGGIFEHSPWIAERAHGLELGPAHDTAGGLHNALCRMFRSASAEERLGVLTAHPDLAGKLAQAKRLTAESTSEQASAGLDALTDEERTTFTRLNTEYVARFGFPFIIAVRDHDKASILAAFQRRIGNDRETEFAEACRQVERIAEFRLRDVLPSLEHHHHHH
protein production: not failed

MQANRSQLHSPPGTGSSEDASTPQCVHTRLTGEGSCPHSGDVHIQINSIPKECAENASSRNIRSGVHSCAHGCVHSRLRGHSHSEARLTDDTAAESGDHGSSSFSEFRYLFKWLQKSLPYILILSVKLVMQHITGISLGIGLLTTFMYANKSIVNQVFLRLNFFKSYFGPFELLGSILDCWNYRLHSEILFHGLKMPYFIGAFFHHAF
protein production: failed

MHSQASNPSATPEPETPNAAGGKRSVFAVILGNAVEFFDFGVYATFAVMIGHTFFPSDSAFVSLMLSVTAFGVGFIVRPLGAVLIGAYADRVGRKPAMLLTLVMMAVGTGSIAILPSYESIGIAAPILLVLTRLIQGLAWGGEAGPATTYILEAAPAHKRGTYACWQVVAQGVAAMAAGTVGYTLTQVLSPEDLNSWGWRVPFVFGLLVLPIGIYIRRNLAETFHGQGETASTGSLVRQVFGEHRRALVLGLLILSGSTITQYFINYMTTFALTELKLPTSISMLSTLVAGAAMAVCAIAGGMLCDRFGRRTILMAPRVVLLLVLFPALQLMTEHPSPTTFLLTLAVLSGLHGMSGAALIVLLVESFPKAVRSTGFSIVYAFGVAAFGGTAQIIITWLIGTTGNPMSPVGYLLVANLVCLTAAWFAKETRPQAPGRSNPGQRLAEARAR
protein production: failed
